According to article PMC9881146:

Key:
[1] = biological target: Cdc13 OB1 domain (Strep-TEV-Strep-OB1, residues 1-176) (C. glabrata); experiment: AUC
[2] = biological target: Cdc13 OB1 domain without its C-terminal tail (OB1 ΔC-ter) (C. glabrata); experiment: AUC
[3] = biological target: Cdc13 OB2 domain (Strep-TEV-Strep-OB2, residues 260-396) (C. glabrata); experiment: SEC
[4] = biological target: Cdc13_(OB23) (H10-TEV-Cdc13_(OB23)) (C. glabrata); experiment: SEC
[5] = biological target: Cdc13_(OB23) (H10-TEV-Cdc13_(OB23)) (C. glabrata); experiment: mass photometry
[6] = biological target: Cdc13_(OB23) (H10-TEV-Cdc13_(OB23)) (C. glabrata); experiment: AUC
[7] = biological target: Cdc13_(OB24) (H10-TEV-Cdc13_(OB24)) (C. glabrata); experiment: SEC
[8] = biological target: Cdc13_(OB24) (H10-TEV-Cdc13_(OB24)) (C. glabrata); experiment: mass photometry
[9] = biological target: Cdc13_(OB24) (H10-TEV-Cdc13_(OB24)) (C. glabrata); experiment: AUC
[10] = biological target: Cdc13_(OB234), purified, large tag removed (C. glabrata); experiment: AUC
[11] = biological target: OB1 ΔC-ter A40W (C. glabrata); experiment: AUC
[12] = biological target: OB1 ΔC-ter A40W D94A (C. glabrata); experiment: AUC
[13] = biological target: OB1 ΔC-ter Q39A (C. glabrata); experiment: AUC
[14] = biological target: OB1 ΔC-ter Q39A A40W (C. glabrata); experiment: AUC
[15] = biological target: T1, Cdc13OB34 (Candida glabrata, UniProt Q6FT40 401-753); experiment: fluorescence polarization
T1 sequence: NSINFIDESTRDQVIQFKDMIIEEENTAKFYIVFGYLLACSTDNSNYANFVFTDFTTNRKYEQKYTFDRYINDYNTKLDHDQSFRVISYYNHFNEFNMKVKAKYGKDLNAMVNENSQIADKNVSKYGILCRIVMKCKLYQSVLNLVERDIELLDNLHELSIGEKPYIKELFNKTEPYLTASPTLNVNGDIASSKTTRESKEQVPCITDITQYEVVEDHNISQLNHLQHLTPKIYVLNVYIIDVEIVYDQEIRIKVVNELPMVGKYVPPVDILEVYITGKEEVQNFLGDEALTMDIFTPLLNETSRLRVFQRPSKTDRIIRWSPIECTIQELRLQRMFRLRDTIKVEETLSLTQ

[16] = biological target: T2, Cdc13OB23 (Candida glabrata, UniProt Q6FT40 260-593); experiment: fluorescence polarization
T2 sequence: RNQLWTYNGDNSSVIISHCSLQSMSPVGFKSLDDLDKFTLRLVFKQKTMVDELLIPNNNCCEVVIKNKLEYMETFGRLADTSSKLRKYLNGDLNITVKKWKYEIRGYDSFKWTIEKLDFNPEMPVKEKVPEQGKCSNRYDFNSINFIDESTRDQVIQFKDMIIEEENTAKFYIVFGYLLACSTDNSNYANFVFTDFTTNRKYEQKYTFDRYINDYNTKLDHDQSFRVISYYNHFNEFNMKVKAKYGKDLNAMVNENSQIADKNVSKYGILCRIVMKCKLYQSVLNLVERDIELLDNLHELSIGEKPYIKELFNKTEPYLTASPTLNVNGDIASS

[17] = biological target: T3, Cdc13OB234 (Candida glabrata, UniProt Q6FT40 260-753); experiment: fluorescence polarization
T3 sequence: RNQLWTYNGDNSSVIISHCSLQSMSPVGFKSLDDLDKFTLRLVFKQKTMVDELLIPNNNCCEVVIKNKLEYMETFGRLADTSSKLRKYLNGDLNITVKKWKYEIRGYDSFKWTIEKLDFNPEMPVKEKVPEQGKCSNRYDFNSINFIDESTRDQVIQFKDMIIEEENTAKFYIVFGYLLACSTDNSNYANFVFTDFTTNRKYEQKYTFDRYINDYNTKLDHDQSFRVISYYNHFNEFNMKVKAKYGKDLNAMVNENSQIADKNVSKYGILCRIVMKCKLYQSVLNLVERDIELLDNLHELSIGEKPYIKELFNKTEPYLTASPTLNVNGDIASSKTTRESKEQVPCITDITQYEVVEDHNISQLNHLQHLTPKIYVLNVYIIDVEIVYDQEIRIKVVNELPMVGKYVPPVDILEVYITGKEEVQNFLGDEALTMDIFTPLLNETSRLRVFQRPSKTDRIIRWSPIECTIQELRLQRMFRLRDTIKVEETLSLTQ

[18] = biological target: T4, OB3 (Candida glabrata, UniProt Q6FT40 401-593); experiment: EMSA
T4 sequence: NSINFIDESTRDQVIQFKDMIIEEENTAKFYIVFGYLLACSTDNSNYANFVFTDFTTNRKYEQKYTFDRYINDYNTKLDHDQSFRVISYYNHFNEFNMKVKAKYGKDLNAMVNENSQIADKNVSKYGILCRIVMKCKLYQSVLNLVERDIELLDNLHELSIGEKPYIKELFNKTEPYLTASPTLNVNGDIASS

## Cdc13 OB1 domain (Strep-TEV-Strep-OB1, residues 1-176) (domain or fragment)
[1]
  relative abundance of species 1 (monomer): 72%
  relative abundance of species 2: 4%
  relative abundance of species 3: 3%
  relative abundance of species 4: 4.5%
  relative abundance of species 5: 2%

## Cdc13 OB1 domain without its C-terminal tail (OB1 ΔC-ter) (domain or fragment)
[2]
  relative abundance of species 1: 95%
  relative abundance of species 2: 4%
  relative abundance of species 3: 1%

## Cdc13 OB2 domain (Strep-TEV-Strep-OB2, residues 260-396) (domain or fragment)
[3]
  stoichiometry N: 2

## Cdc13_(OB23) (H10-TEV-Cdc13_(OB23)) (domain or fragment)
[4]
  stoichiometry N: 2
[5]
  stoichiometry N: 2
[6]
  stoichiometry N: 2

## Cdc13_(OB24) (H10-TEV-Cdc13_(OB24)) (domain or fragment)
[7]
  stoichiometry N: 2
[8]
  stoichiometry N: 2
[9]
  stoichiometry N: 2

## Cdc13_(OB234), purified, large tag removed (domain or fragment)
[10]
  stoichiometry N: 2

## OB1 ΔC-ter A40W (domain or fragment)
[11]
  relative abundance of species 1: 97.9%
  relative abundance of species 2: 2.1%

## OB1 ΔC-ter A40W D94A (domain or fragment)
[12]
  relative abundance of species 1: 97%
  relative abundance of species 2: 3%

## OB1 ΔC-ter Q39A (domain or fragment)
[13]
  relative abundance of species 1: 95.8%
  relative abundance of species 2: 3.1%
  relative abundance of species 3: 1.1%

## OB1 ΔC-ter Q39A A40W (domain or fragment)
[14]
  relative abundance of species 1: 97.8%
  relative abundance of species 2: 2.2%

## TGTGGGGTCTGGGTGCTGTGGGGTCTGGGTGCTGTGGGGTCTGGGTGC (ssDNA) [6FAM-CgTelo]
[15]
  Kd: 299 ± 41 nM
[16]
  Kd: 28.5 ± 3.8 nM
[17]
  Kd: 13.5 ± 1.7 nM

## TTTTTTTTTTTTTTTTTTTTTTTTTTTTTTTTTTTTTTTTTTTTTTTT (ssDNA) [polyT]
[18]
  binding result: no binding
